Test results reported in patent US20190153059A1 (ADEPTHERA, published 2019).
Values belong to the binder of their own block, whether it stands above or below them. Square brackets hold non-standard residues; d marks the D form. Ends that are not written are not given here. * marks the point of attachment. Palmitoyl = CCCCCCCCCCCCCCCC(=O)*; AEEA = NCCOCCOCC(=O)O

Assays:
CLR/RAMP2 receptor = CLR/RAMP2 receptor (UniProt Q16602 23-461; O60895 43-175, limits assumed); test: cell-based or functional assay
Chain of CLR/RAMP2 receptor (Q16602 23-461 limits assumed, chain 1 of 2): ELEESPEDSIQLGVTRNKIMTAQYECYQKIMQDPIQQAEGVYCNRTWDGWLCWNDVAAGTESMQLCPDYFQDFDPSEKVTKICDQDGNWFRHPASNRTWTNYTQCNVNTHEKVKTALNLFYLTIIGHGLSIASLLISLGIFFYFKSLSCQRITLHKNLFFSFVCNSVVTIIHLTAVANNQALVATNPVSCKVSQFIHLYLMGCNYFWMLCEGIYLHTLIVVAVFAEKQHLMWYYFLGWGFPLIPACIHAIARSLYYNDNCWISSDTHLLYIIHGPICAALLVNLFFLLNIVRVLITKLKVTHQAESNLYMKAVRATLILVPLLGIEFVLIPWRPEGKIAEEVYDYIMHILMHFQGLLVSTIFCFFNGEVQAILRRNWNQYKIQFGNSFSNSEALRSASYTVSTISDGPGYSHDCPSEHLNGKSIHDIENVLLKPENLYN
Chain of CLR/RAMP2 receptor (O60895 43-175 limits assumed, chain 2 of 2): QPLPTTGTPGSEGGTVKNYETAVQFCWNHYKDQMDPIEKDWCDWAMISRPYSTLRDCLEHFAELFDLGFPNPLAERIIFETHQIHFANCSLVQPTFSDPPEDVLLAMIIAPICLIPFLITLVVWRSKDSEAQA

CLR/RAMP1 receptor = CLR/RAMP1 receptor (UniProt Q16602 23-461; O60894 27-148, limits assumed); test: cell-based or functional assay
Chain of CLR/RAMP1 receptor (Q16602 23-461 limits assumed, chain 1 of 2): as the sequence (Q16602 23-461 limits assumed, chain 1 of 2) above
Chain of CLR/RAMP1 receptor (O60894 27-148 limits assumed, chain 2 of 2): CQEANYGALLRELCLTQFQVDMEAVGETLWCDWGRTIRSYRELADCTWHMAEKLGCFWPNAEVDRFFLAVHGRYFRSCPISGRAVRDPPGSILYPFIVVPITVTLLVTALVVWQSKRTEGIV

Binder: [AEEA]K(Palmitoyl)GCRFGTCTVQKLAHQIYQFTDKDKQDSAPVDPSSPHSY-NH2 (ends and bridges not checked) [SEQ ID NO: 51]
CLR/RAMP2 EC50 (CLR/RAMP2 receptor): 0.3 nM
CLR/RAMP1 EC50 (CLR/RAMP1 receptor): 0.2 nM
CLR/RAMP1 Max Activity (CLR/RAMP1 receptor): 65 % of positive control

Binder: KGCRFGTCTVQKLAHQIYQFTDKDKDNVAPRSKISPQGY (Ace-PEG3- at N-terminus; K(Hexadecanoyl-isoGlu); -NH2) [SEQ ID NO: 151]
CLR/RAMP1 EC50 (CLR/RAMP1 receptor): 0.5 nM

Binder: KGCRFGTCTVQKLAHQIYQFTDKDKDNVAPRSKISPQGY (Ace-PEG3- at N-terminus; K([19-carboxy-nonadecanoyl]-isoGlu); -NH2) [SEQ ID NO: 155]
CLR/RAMP1 EC50 (CLR/RAMP1 receptor): 0.6 nM

Binder: Ac-VGCRFGTCTVQKLAHQIYQFTDKDKDNSAPVDPSSPHSY-NH2 (ends and bridges not checked) [SEQ ID NO: 56]
CLR/RAMP2 EC50 (CLR/RAMP2 receptor): 17 nM
CLR/RAMP1 EC50 (CLR/RAMP1 receptor): 224 nM

Binder: Ac-KGCRFGTCTVQKLAHQIYQFTDKDKDNSAPVDPSSPHSY-NH2 (ends and bridges not checked) [SEQ ID NO: 59]
CLR/RAMP2 EC50 (CLR/RAMP2 receptor): 18 nM
CLR/RAMP1 EC50 (CLR/RAMP1 receptor): 31 nM

Binder: Ac-KGCRFGTCTVQKLAHQIYQFTDKDKDNVAPVDPSSPHSY-NH2 (ends and bridges not checked) [SEQ ID NO: 60]
CLR/RAMP2 EC50 (CLR/RAMP2 receptor): 3 nM
CLR/RAMP1 EC50 (CLR/RAMP1 receptor): 16 nM

Binder: KGCRFGTCTVQKLAHQIYQFTDKDKSAPVDPSSPHSY (miniPEG- at N-terminus; K(PAL); -NH2) [SEQ ID NO: 47]
CLR/RAMP2 EC50 (CLR/RAMP2 receptor): 0.4 nM
CLR/RAMP2 Max Activity (CLR/RAMP2 receptor): 64 % of positive control

Other lines, results leading:

CLR/RAMP1 EC50 (CLR/RAMP1 receptor): 0.8 nM
CLR/RAMP1 Max Activity (CLR/RAMP1 receptor): 88 % of positive control
Binder: KGCRFGTCTVQKLAHQIYQFTDKDKDNVAPRSKISPQGY (Ace-PEG3- at N-terminus; K([19-carboxy-nonadecanoyl]-PEG3-isoGlu); -NH2) [SEQ ID NO: 156]

CLR/RAMP2 EC50 (CLR/RAMP2 receptor): 0.7 nM
CLR/RAMP2 Max Activity (CLR/RAMP2 receptor): 107 % of positive control
Binder: KGCRFGTCTVQKLAHQIYQFTDKDVAPRSKISPQGY (miniPEG- at N-terminus; K(PAL); (D-Ser) in ...VAPR(D-Ser)KISPQGY; -NH2) [SEQ ID NO: 213]

CLR/RAMP2 Max Activity (CLR/RAMP2 receptor): 102 % of positive control
CLR/RAMP1 Max Activity (CLR/RAMP1 receptor): 69 % of positive control
Binder: Ac-FGCRFGTCTVQKLAHQIYQFTDKDKDNVAPRSKISPQGY-NH2 (ends and bridges not checked) [SEQ ID NO: 53 (human ADM)]

CLR/RAMP2 EC50 (CLR/RAMP2 receptor): 149 nM
CLR/RAMP1 EC50 (CLR/RAMP1 receptor): 909 nM
Binder: Ac-VGCRFGTCTVQKLAHQIYQFTPAGRQDSAPVDPSSPHSY-NH2 (ends and bridges not checked) [SEQ ID NO: 57]

CLR/RAMP2 EC50 (CLR/RAMP2 receptor): 0.6 nM
CLR/RAMP1 EC50 (CLR/RAMP1 receptor): 0.4 nM
Binder: Palmitoyl-KGCRFGTCTVQKLAHQIYQFTDKDKDNSAPVDPSSPHSY-NH2 (cysteine pairing not given here) [SEQ ID NO: 30]

CLR/RAMP1 Max Activity (CLR/RAMP1 receptor): 2 % of positive control
Binder: [AEEA]K(Palmitoyl)GCRFGTCTVQKLAHLWQLMGPAGRQDSAPVDPSSPHSY-NH2 (not fully specified; ends and bridges not checked) [SEQ ID NO: 62]

CLR/RAMP2 EC50 (CLR/RAMP2 receptor): 7 nM
CLR/RAMP1 EC50 (CLR/RAMP1 receptor): 180 nM
Binder: Palmitoyl-KGCRFGTCTVQKLAHQIYQFTDKDKDNVAPRSKSSPHSY-NH2 (ends and bridges not checked) [SEQ ID NO: 63]

CLR/RAMP2 EC50 (CLR/RAMP2 receptor): 0.4 nM
CLR/RAMP2 Max Activity (CLR/RAMP2 receptor): 99 % of positive control
Binder: KGCRFGTCTVQKLAHQIYQFTDKDVAPRSKISPQGY (miniPEG- at N-terminus; K(PAL); (D-Gln) in ...KISP(D-Gln)GY; -NH2) [SEQ ID NO: 214]

CLR/RAMP2 EC50 (CLR/RAMP2 receptor): 0.2 nM
Binder: TKKTLRTGCRFGTCTVQKLAHQIYQFTDKDKDNVAPVDPSSPHSY (miniPEG- at N-terminus; K(Pal) at position 2 (miniPEG-TK(Pal)K...); -NH2) [SEQ ID NO: 42]

CLR/RAMP2 EC50 (CLR/RAMP2 receptor): 0.5 nM
CLR/RAMP2 Max Activity (CLR/RAMP2 receptor): 104 % of positive control
Binder: [AEEA]K(Palmitoyl)GCRFGTCTVQKLAHQIYQFTDKDKDSAPVDPSSPHSY-NH2 (ends and bridges not checked) [SEQ ID NO: 46]
